Test results from paper PMC6044475.

Experiments:
Assay in all cases: SEC
[1] = target: Eca Y396A (Enterococcus casseliflavus)
[2] = target: Eca T320A (Enterococcus casseliflavus)
[3] = target: Eca E318Q (Enterococcus casseliflavus)

With Eca Y396A (natural protein) the stoichiometry N [1] was 2.

Eca T320A (natural protein) gave a stoichiometry N [2] of 2.

For Eca E318Q (natural protein), the stoichiometry N [3] was 2.
